B1: MATN2 (parent)
chain: TDDSYSCHCLKGFTLNPDKKTCRR

Variants of: B1
Experiment: protein stability index of a GFP-peptide fusion (GPS, HEK-293T) (PSI 1-6); higher = more stable
Settings: c terminus: a fixed tail appended
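Note: lentivirally expressed fusions sorted by FACS into six bins by GFP to DsRed ratio, PSI derived from sequencing read proportions per bin multiplied by bin number.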

With K20H as the variant, how does the protein stability index read?
The protein stability index was 2.17.

With K20C as the variant, how does the protein stability index read?
The protein stability index was 4.55.

Which protein stability index does the source give for K20Y here?
Its protein stability index is 1.53.

Which protein stability index does the source give for K20D here?
Its protein stability index is 2.29.

For K20E, which protein stability index is on record?
The protein stability index was 2.06.

For K20S, which protein stability index is on record?
The protein stability index was 2.33.

Which protein stability index does the source give for K20V here?
The protein stability index was 1.77.

For K20G, which protein stability index is on record?
Its protein stability index is 2.09.

Which protein stability index does the source give for K20W here?
Its protein stability index is 1.48.

With K20R as the variant, how does the protein stability index read?
The protein stability index was 2.03.

For K20L, which protein stability index is on record?
Its protein stability index is 1.32.

Which protein stability index does the source give for K20Q here?
Its protein stability index is 2.95.

With K20T as the variant, how does the protein stability index read?
Its protein stability index is 1.6.

For K20I, which protein stability index is on record?
The protein stability index was 2.1.

For K20P, which protein stability index is on record?
Its protein stability index is 1.93.

For K20F, which protein stability index is on record?
The protein stability index was 1.85.

Which protein stability index does the source give for K20M here?
Its protein stability index is 1.78.

Which protein stability index does the source give for K20N here?
Its protein stability index is 2.04.

With K20A as the variant, how does the protein stability index read?
Its protein stability index is 2.68.

For T21Y, which protein stability index is on record?
The protein stability index was 2.27.

Which protein stability index does the source give for T21W here?
Its protein stability index is 1.83.

With T21K as the variant, how does the protein stability index read?
Its protein stability index is 2.06.

With T21M as the variant, how does the protein stability index read?
Its protein stability index is 2.57.

Which protein stability index does the source give for T21H here?
The protein stability index was 2.62.

Which protein stability index does the source give for T21F here?
The protein stability index was 1.57.

With T21D as the variant, how does the protein stability index read?
Its protein stability index is 2.6.

For T21E, which protein stability index is on record?
Its protein stability index is 2.89.

With T21A as the variant, how does the protein stability index read?
The protein stability index was 2.2.

With T21G as the variant, how does the protein stability index read?
The protein stability index was 1.33.

Which protein stability index does the source give for T21I here?
The protein stability index was 2.4.

For T21V, which protein stability index is on record?
The protein stability index was 2.41.

For T21C, which protein stability index is on record?
Its protein stability index is 2.75.

With T21S as the variant, how does the protein stability index read?
The protein stability index was 2.36.

For T21R, which protein stability index is on record?
The protein stability index was 2.34.

Which protein stability index does the source give for T21Q here?
Its protein stability index is 2.64.

With T21P as the variant, how does the protein stability index read?
The protein stability index was 2.36.

For T21N, which protein stability index is on record?
The protein stability index was 2.32.

With T21L as the variant, how does the protein stability index read?
The protein stability index was 2.15.

For K19V, which protein stability index is on record?
Its protein stability index is 2.3.

With K19W as the variant, how does the protein stability index read?
Its protein stability index is 1.16.

Which protein stability index does the source give for K19Y here?
The protein stability index was 2.25.

With R24E as the variant, how does the protein stability index read?
The protein stability index was 3.43.

For R24Q, which protein stability index is on record?
The protein stability index was 2.61.

For R24W, which protein stability index is on record?
Its protein stability index is 1.99.

Which protein stability index does the source give for R24C here?
The protein stability index was 5.18.

Which protein stability index does the source give for R24M here?
The protein stability index was 2.19.

Which protein stability index does the source give for R24K here?
Its protein stability index is 2.99.

Which protein stability index does the source give for R24S here?
The protein stability index was 2.87.

For R24G, which protein stability index is on record?
Its protein stability index is 3.12.

Which protein stability index does the source give for R24L here?
Its protein stability index is 2.38.

Which protein stability index does the source give for R24N here?
Its protein stability index is 3.25.

For R24F, which protein stability index is on record?
The protein stability index was 2.5.

With R24D as the variant, how does the protein stability index read?
The protein stability index was 3.73.

For R24A, which protein stability index is on record?
Its protein stability index is 2.87.

For R24H, which protein stability index is on record?
The protein stability index was 4.06.

For R24V, which protein stability index is on record?
The protein stability index was 2.32.

For R24T, which protein stability index is on record?
Its protein stability index is 3.15.

Which protein stability index does the source give for R24P here?
Its protein stability index is 2.46.

Which protein stability index does the source give for R24Y here?
Its protein stability index is 2.6.

Which protein stability index does the source give for R24I here?
Its protein stability index is 1.6.

For R23C, which protein stability index is on record?
Its protein stability index is 2.83.

With R23V as the variant, how does the protein stability index read?
The protein stability index was 2.48.

With R23S as the variant, how does the protein stability index read?
The protein stability index was 2.29.

For R23P, which protein stability index is on record?
Its protein stability index is 2.56.

Which protein stability index does the source give for R23Y here?
Its protein stability index is 2.2.

Which protein stability index does the source give for R23G here?
Its protein stability index is 2.62.

Which protein stability index does the source give for R23E here?
The protein stability index was 2.52.

For R23N, which protein stability index is on record?
The protein stability index was 2.71.

For R23L, which protein stability index is on record?
Its protein stability index is 2.36.

With R23T as the variant, how does the protein stability index read?
The protein stability index was 2.52.

For R23Q, which protein stability index is on record?
Its protein stability index is 2.78.

For R23W, which protein stability index is on record?
Its protein stability index is 2.26.

Which protein stability index does the source give for R23D here?
Its protein stability index is 2.62.

For R23K, which protein stability index is on record?
Its protein stability index is 2.76.

Which protein stability index does the source give for R23F here?
Its protein stability index is 1.86.

Which protein stability index does the source give for R23A here?
Its protein stability index is 2.41.

For R23M, which protein stability index is on record?
Its protein stability index is 1.5.

For R23I, which protein stability index is on record?
Its protein stability index is 2.02.

For R23H, which protein stability index is on record?
Its protein stability index is 1.91.

With C22I as the variant, how does the protein stability index read?
Its protein stability index is 2.09.

For C22R, which protein stability index is on record?
The protein stability index was 2.86.

For C22G, which protein stability index is on record?
Its protein stability index is 2.27.

For C22T, which protein stability index is on record?
The protein stability index was 2.44.

With C22D as the variant, how does the protein stability index read?
The protein stability index was 2.69.

With C22Q as the variant, how does the protein stability index read?
The protein stability index was 2.27.

Which protein stability index does the source give for C22L here?
Its protein stability index is 2.93.

For C22V, which protein stability index is on record?
Its protein stability index is 3.13.

For C22H, which protein stability index is on record?
The protein stability index was 2.18.

Which protein stability index does the source give for C22P here?
Its protein stability index is 3.

For C22W, which protein stability index is on record?
The protein stability index was 1.67.

For C22E, which protein stability index is on record?
The protein stability index was 2.02.

Which protein stability index does the source give for C22M here?
The protein stability index was 1.88.

Which protein stability index does the source give for C22N here?
Its protein stability index is 2.75.

For C22S, which protein stability index is on record?
The protein stability index was 2.42.

With C22K as the variant, how does the protein stability index read?
The protein stability index was 3.37.

Which protein stability index does the source give for C22A here?
The protein stability index was 2.

Which protein stability index does the source give for C22F here?
The protein stability index was 2.16.

With C22Y as the variant, how does the protein stability index read?
Its protein stability index is 1.94.
